These are literature values, as cited in patent US20200069786A1, “COMPOSITION AND PROCESS FOR PREPARING VACCINE” (TREOS BIO ZRT., priority 2018, published 2020).

Where two headings read alike, the source gives them in different places.

The series concerns TSA.
Where [1] appears, read: TSA expression rate in Esophageal.
Where [2] appears, read: TSA expression rate in GASTRIC cancer.
[3] abbreviates: TSA expression rate in LUNG cancer.
The mark [4] stands for this setting: TSA expression rate in MELANOMA
Setting [5] is: TSA expression rate in PROSTATE cancer.
Setting [6] is: TSA expression rate in Cervical cancer.

B1: TRAG-3 (protein, UniProt Q9Y5P2 1-127, looked up)
Chondrosarcoma-associated …: MWMGLIQLVEGVKRKDQGFLEKEFYHKTNIKMRCEFLACWPAFTVLGEAWRDQVDWSRLLRDAGLVKMSRKPRASSPLSNNHPPTPKRRGSGRHPLNPGPEALSKFPRQPGREKGPIKEVPGTKGSP
On to B1, for which the “TSA Expression Rate (ER)” value by setting is: (BRAIN) 0%; (BREAST) 10%; (HCC) 26%; (LUNG) 54%; (OVARIAN) 83%. For the same molecule, the “Expression Rate (ER) %” value is, setting by setting: (TSA expression rate in CRC) 7%; under setting [1], 55%; under setting [2], 10%.

B2: SLCO6A1 (protein, UniProt Q86UG4 1-719, looked up)
Solute carrier organic anion …: MFVGVARHSGSQDEVSRGVEPLEAARAQPAKDRRAKGTPKSSKPGKKHRYLRLLPEALIRFGGFRKRKKAKSSVSKKPGEVDDSLEQPCGLGCLVSTCCECCNNIRCFMIFYCILLICQGVVFGLIDVSIGDFQKEYQLKTIEKLALEKSYDISSGLVAIFIAFYGDRKKVIWFVASSFLIGLGSLLCAFPSINEENKQSKVGIEDICEEIKVVSGCQSSGISFQSKYLSFFILGQTVQGIAGMPLYILGITFIDENVATHSAGIYLGIAECTSMIGYALGYVLGAPLVKVPENTTSATNTTVNNGSPEWLWTWWINFLFAAVVAWCTLIPLSCFPNNMPGSTRIKARKRKQLHFFDSRLKDLKLGTNIKDLCAALWILMKNPVLICLALSKATEYLVIIGASEFLPIYLENQFILTPTVATTLAGLVLIPGGALGQLLGGVIVSTLEMSCKALMRFIMVTSVISLILLVFIIFVRCNPVQFAGINEDYDGTGKLGNLTAPCNEKCRCSSSIYSSICGRDDIEYFSPCFAGCTYSKAQNQKKMYYNCSCIKEGLITADAEGDFIDARPGKCDAKCYKLPLFIAFIFSTLIFSGFSGVPIVLAMTRVVPDKLRSLALGVSYVILRIFGTIPGPSIFKMSGETSCILRDVNKCGHTGRCWIYNKTKMAFLLVGICFLCKLCTIIFTTIAFFIYKRRLNENTDFPDVTVKNPKVKKKEETDL
In the case of B2, the “TSA Expression Rate (ER)” value reads like this: (BRAIN) 19%; (BREAST) 7%. Also, the “Expression Rate (ER) %” value under setting [1] is on record as 33% and the “Expression Rate (ER) %” value under setting [3] is given as 7%.

B3: NXF2 (protein, UniProt Q9GZY0 1-626, looked up)
Nuclear RNA export factor 2: MCSTLKKCGTYRTEVAECHDHGSTFQGRKKGGSSFRDNFDKRSCHYEHGGYERPPSHCQENDGSVEMRDVHKDQQLRHTPYSIRCERRMKWHSEDEIRITTWRNRKPPERKMSQNTQDGYTRNWFKVTIPYGIKYDKAWLMNSIQSHCSDRFTPVDFHYVRNRACFFVQDASAASALKDVSYKIYDDENQKICIFVNHSTAPYSVKNKLKPGQMEMLKLTMNKRYNVSQQALDLQNLRFDPDLMGRDIDIILNRRNCMAATLKIIERNFPELLSLNLCNNKLYQLDGLSDITEKAPKVKTLNLSKNKLESAWELGKVKGLKLEELWLEGNPLCSTFSDQSAYVSAIRDCFPKLLRLDGRELSAPVIVDIDSSETMKPCKENFTGSETLKHLVLQFLQQYYSIYDSGDRQGLLGAYHDEACFSLAIPFDPKDSAPSSLCKYFEDSRNMKTLKDPYLKGELLRRTKRDIVDSLSALPKTQHDLSSILVDVWCQTERMLCFSVNGVFKEVEGQSQGSVLAFTRTFIATPGSSSSLCIVNDELFVRDASPQETQSAFSIPVSTLSSSSEPSLSQEQQEMVQAFSAQSGMKLEWSQKCLQDNEWNYTRAGQAFTMLQTEGKIPAEAFKQIS
For B3, the “TSA Expression Rate (ER)” value by setting is: (BRAIN) 18%; (BREAST) 2%; (THYROID) 20%. Also, the “Expression Rate (ER) %” value is 19% (TSA expression rate in BLADDER cancer); 9% (TSA expression rate in CRC); 17% under setting [1]; 6% under setting [2]; 5% (TSA expression rate in HEAD and NECK); 0% (TSA expression rate in Kidney). The “Expression Rate (ER) %” value is 15% under setting [3], 8% under setting [4] and 14% under setting [5].

B4: MAGE-B6 (protein, UniProt Q8N7X4 1-407, looked up)
Melanoma-associated antigen B6: MPRGHKSKLRTCEKRQETNGQPQGLTGPQATAEKQEESHSSSSSSRACLGDCRRSSDASIPQESQGVSPTGSPDAVVSYSKSDVAANGQDEKSPSTSRDASVPQESQGASPTGSPDAGVSGSKYDVAANGQDEKSPSTSHDVSVPQESQGASPTGSPDAGVSGSKYDVAAEGEDEESVSASQKAIIFKRLSKDAVKKKACTLAQFLQKKFEKKESILKADMLKCVRREYKPYFPQILNRTSQHLVVAFGVELKEMDSSGESYTLVSKLGLPSEGILSGDNALPKSGLLMSLLVVIFMNGNCATEEEVWEFLGLLGIYDGILHSIYGDARKIITEDLVQDKYVVYRQVCNSDPPCYEFLWGPRAYAETTKMRVLRVLADSSNTSPGLYPHLYEDALIDEVERALRLRA
Turning to B4, the “TSA Expression Rate (ER)” value (BRAIN) is given as 6%.

B5: FAM46D (protein, UniProt Q8NEK8 1-389, looked up)
Terminal …: MSEIRFTNLTWDQVITLDQVLDEVIPIHGKGNFPTMEVKPKDIIHVVKDQLIGQGIIVKDARLNGSVASYILASHNGISYKDLDVIFGVELPGNEEFQVVKDAVLDCLLDFLPKDVKKEKLSPDIMKDAYVQKLVKVCNGHDCWSLISLSNNTGKNLELKFVSSLRRQFEFSVDSFQIVLDPMLDFYSDKNAKLTKESYPVVVAESMYGDFQEAMTHLQHKLICTRKPEEIRGGGLLKYCSLLVHGFKPACMSEIKNLERYMCSRFFIDFPHIEEQQKKIESYLHNHFIGEGMTKYDYLMTLHGVVNESTVCLMSYERRQILHLITMMALKVLGELNILPNTQKVTCFYQPAPYFAAEARYPIYVIPEPPPVSFQPYHPLHFRGSNGMS
For the molecule B5, the “TSA Expression Rate (ER)” value (BRAIN) is on record as 8%, the “TSA Expression Rate (ER)” value (LUNG) is on record as 50% and the “TSA Expression Rate (ER)” value (THYROID) is listed as 8%. Besides, the “Expression Rate (ER) %” value (TSA expression rate in CRC) is given as 22%; the “Expression Rate (ER) %” value under setting [6] is listed as 37%; the “Expression Rate (ER) %” value under setting [2] is listed as 11%; the “Expression Rate (ER) %” value under setting [4] was 28%; the “Expression Rate (ER) %” value under setting [5] is 33%.

B6: SP17 (protein, UniProt Q15506 1-151, looked up)
Sperm surface protein Sp17: MSIPFSNTHYRIPQGFGNLLEGLTREILREQPDNIPAFAAAYFESLLEKREKTNFDPAEWGSKVEDRFYNNHAFEEQEPPEKSDPKQEESQISGKEEETSVTILDSSEEDKEKEEVAAVKIQAAFRGHIAREEAKKMKTNSLQNEEKEENK
Turning to B6, the “TSA Expression Rate (ER)” value (BRAIN) is recorded as 13%; the “TSA Expression Rate (ER)” value (BREAST) is recorded as 47%; the “TSA Expression Rate (ER)” value (HCC) is reported as 87%; the “TSA Expression Rate (ER)” value (OVARIAN) is 62%; the “TSA Expression Rate (ER)” value (THYROID) was 10%. The “Expression Rate (ER) %” value under setting [6] is listed as 61%, the “Expression Rate (ER) %” value under setting [1] is given as 81%, the “Expression Rate (ER) %” value under setting [3] is on record as 12% and the “Expression Rate (ER) %” value under setting [5] is recorded as 10%.
